From the supplement of paper PMC10567573

B1: DCTD (parent)
chain: VKGCSMYVALFPCNECAKLIIQAG

Variants of: B1
Assay: protein stability index of a GFP-peptide fusion (GPS, HEK-293T) (PSI 1-6); higher = more stable
Conditions: c terminus: a fixed tail appended
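Note: lentivirally expressed fusions sorted by FACS into six bins by GFP to DsRed ratio, PSI derived from sequencing read proportions per bin multiplied by bin number.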

Point of comparison: VKGCSMYVALYPCNECAKLIIQAG [F11Y], protein stability index 2.95. Against it:
- VKTCSMYVALFPCNECAKLIIQAG [G3T] — higher, 3.43
- VKVCSMYVALFPCNECAKLIIQAG [G3V] — lower, 2.23
- VKWCSMYVALFPCNECAKLIIQAG [G3W] — higher, 4.42
- VKYCSMYVALFPCNECAKLIIQAG [G3Y] — higher, 4.09
- VKGASMYVALFPCNECAKLIIQAG [C4A] — lower, 2.19
- VKGESMYVALFPCNECAKLIIQAG [C4E] — lower, 1.71
- VKGFSMYVALFPCNECAKLIIQAG [C4F] — lower, 2.92
- VKGISMYVALFPCNECAKLIIQAG [C4I] — lower, 2.89
- VKGLSMYVALFPCNECAKLIIQAG [C4L] — lower, 2.78
- VKGPSMYVALFPCNECAKLIIQAG [C4P] — lower, 1.75
- VKGRSMYVALFPCNECAKLIIQAG [C4R] — higher, 3.18
- VKGSSMYVALFPCNECAKLIIQAG [C4S] — higher, 3.15
- VKGTSMYVALFPCNECAKLIIQAG [C4T] — lower, 2.88
- VKGVSMYVALFPCNECAKLIIQAG [C4V] — lower, 2.86
- VKGCCMYVALFPCNECAKLIIQAG [S5C] — lower, 1.73
- VKGCDMYVALFPCNECAKLIIQAG [S5D] — lower, 2.2
- VKGCEMYVALFPCNECAKLIIQAG [S5E] — higher, 3.58
- VKGCFMYVALFPCNECAKLIIQAG [S5F] — lower, 2.58
- VKGCHMYVALFPCNECAKLIIQAG [S5H] — higher, 3.63
- VKGCKMYVALFPCNECAKLIIQAG [S5K] — lower, 2.44
- VKGCMMYVALFPCNECAKLIIQAG [S5M] — lower, 1.55
- VKGCNMYVALFPCNECAKLIIQAG [S5N] — lower, 2.91
- VKGCPMYVALFPCNECAKLIIQAG [S5P] — higher, 3.12
- VKGCWMYVALFPCNECAKLIIQAG [S5W] — higher, 3.75
- VKGCYMYVALFPCNECAKLIIQAG [S5Y] — lower, 1.87
- VKGCSAYVALFPCNECAKLIIQAG [M6A] — higher, 3.35
- VKGCSCYVALFPCNECAKLIIQAG [M6C] — lower, 2.7
- VKGCSDYVALFPCNECAKLIIQAG [M6D] — lower, 1.7
- VKGCSEYVALFPCNECAKLIIQAG [M6E] — lower, 2.2
- VKGCSHYVALFPCNECAKLIIQAG [M6H] — lower, 2.21
- VKGCSIYVALFPCNECAKLIIQAG [M6I] — higher, 3.81
- VKGCSLYVALFPCNECAKLIIQAG [M6L] — higher, 4.51
- VKGCSNYVALFPCNECAKLIIQAG [M6N] — lower, 2.2
- VKGCSQYVALFPCNECAKLIIQAG [M6Q] — higher, 3.17
- VKGCSRYVALFPCNECAKLIIQAG [M6R] — lower, 1.58
- VKGCSSYVALFPCNECAKLIIQAG [M6S] — lower, 2.46
- VKGCSTYVALFPCNECAKLIIQAG [M6T] — lower, 2.33
- VKGCSYYVALFPCNECAKLIIQAG [M6Y] — lower, 2.7
- VKGCSMAVALFPCNECAKLIIQAG [Y7A] — lower, 2.65
- VKGCSMCVALFPCNECAKLIIQAG [Y7C] — lower, 2.84
- VKGCSMDVALFPCNECAKLIIQAG [Y7D] — lower, 1.68
- VKGCSMFVALFPCNECAKLIIQAG [Y7F] — lower, 2.5
- VKGCSMHVALFPCNECAKLIIQAG [Y7H] — lower, 1.78
- VKGCSMIVALFPCNECAKLIIQAG [Y7I] — higher, 3.49
- VKGCSMLVALFPCNECAKLIIQAG [Y7L] — higher, 4.45
- VKGCSMMVALFPCNECAKLIIQAG [Y7M] — higher, 4.09
- VKGCSMTVALFPCNECAKLIIQAG [Y7T] — lower, 1.91
- VKGCSMWVALFPCNECAKLIIQAG [Y7W] — lower, 2.92
- VKGCSMYAALFPCNECAKLIIQAG [V8A] — lower, 2.64
- VKGCSMYCALFPCNECAKLIIQAG [V8C] — lower, 1.9
- VKGCSMYDALFPCNECAKLIIQAG [V8D] — lower, 1.62
- VKGCSMYEALFPCNECAKLIIQAG [V8E] — lower, 1.75
- VKGCSMYFALFPCNECAKLIIQAG [V8F] — higher, 3.62
- VKGCSMYGALFPCNECAKLIIQAG [V8G] — lower, 1.28
- VKGCSMYHALFPCNECAKLIIQAG [V8H] — lower, 2.37
- VKGCSMYKALFPCNECAKLIIQAG [V8K] — higher, 3.21
- VKGCSMYLALFPCNECAKLIIQAG [V8L] — lower, 1.94
- VKGCSMYMALFPCNECAKLIIQAG [V8M] — lower, 2.92
- VKGCSMYNALFPCNECAKLIIQAG [V8N] — lower, 1.49
- VKGCSMYPALFPCNECAKLIIQAG [V8P] — lower, 2.22
- VKGCSMYQALFPCNECAKLIIQAG [V8Q] — higher, 4.51
- VKGCSMYSALFPCNECAKLIIQAG [V8S] — lower, 2.3
- VKGCSMYTALFPCNECAKLIIQAG [V8T] — lower, 2.19
- VKGCSMYWALFPCNECAKLIIQAG [V8W] — lower, 1.9
- VKGCSMYYALFPCNECAKLIIQAG [V8Y] — higher, 3.08
- VKGCSMYVCLFPCNECAKLIIQAG [A9C] — lower, 2.79
- VKGCSMYVFLFPCNECAKLIIQAG [A9F] — higher, 3.38
- VKGCSMYVGLFPCNECAKLIIQAG [A9G] — higher, 3.16
- VKGCSMYVLLFPCNECAKLIIQAG [A9L] — higher, 3.68
- VKGCSMYVWLFPCNECAKLIIQAG [A9W] — lower, 1.94
- VKGCSMYVAAFPCNECAKLIIQAG [L10A] — lower, 2.48
- VKGCSMYVAPFPCNECAKLIIQAG [L10P] — higher, 3.06
- VKGCSMYVAQFPCNECAKLIIQAG [L10Q] — higher, 3.35
- VKGCSMYVASFPCNECAKLIIQAG [L10S] — lower, 2.2
- VKGCSMYVALCPCNECAKLIIQAG [F11C] — higher, 3.11
- VKGCSMYVALDPCNECAKLIIQAG [F11D] — higher, 4.47
- VKGCSMYVALSPCNECAKLIIQAG [F11S] — lower, 2.83
- VKGCSMYVALFGCNECAKLIIQAG [P12G] — lower, 2.57
- VKGCSMYVALFNCNECAKLIIQAG [P12N] — higher, 3.57
- VKGCSMYVALFQCNECAKLIIQAG [P12Q] — lower, 1.81
- VKGCSMYVALFRCNECAKLIIQAG [P12R] — lower, 2.9
- VKGCSMYVALFTCNECAKLIIQAG [P12T] — lower, 2.86
- VKGCSMYVALFVCNECAKLIIQAG [P12V] — higher, 4.55
- VKGCSMYVALFPENECAKLIIQAG [C13E] — lower, 2.59
- VKGCSMYVALFPPNECAKLIIQAG [C13P] — lower, 1.7
- VKGCSMYVALFPCFECAKLIIQAG [N14F] — higher, 2.99
- VKGCSMYVALFPCKECAKLIIQAG [N14K] — lower, 1.92
- VKGCSMYVALFPCMECAKLIIQAG [N14M] — lower, 2.9
- VKGCSMYVALFPCPECAKLIIQAG [N14P] — lower, 2.04
- VKGCSMYVALFPCNGCAKLIIQAG [E15G] — higher, 3.97
- VKGCSMYVALFPCNHCAKLIIQAG [E15H] — higher, 3.15
- VKGCSMYVALFPCNICAKLIIQAG [E15I] — higher, 3.06
- VKGCSMYVALFPCNNCAKLIIQAG [E15N] — lower, 2.17
